Laboratory results from article PMC11969024 (2025).

B1: peptide HD2 (from tick evasin EVA4) / CCL22 (biotinylated, synthetic) (parent complex)
chain 1: EEDDYTAYAPLTCYFT
chain 2: GPYGANMEDSVCCRDYVRYRLPLRVVKHFYWTSDSCPRPGVVLLTFRDKEICADPRVPWVKMILNKLSQ
B2: peptide HD2 (from tick evasin EVA4) / CCL11 (biotinylated, synthetic) (parent complex)
chain 1: EEDDYTAYAPLTCYFT
chain 2: not shown

Variants of: B1

| Variant | enrichment |
| --- | --- |
| chain 1 EEDDYTAYAPLVCYFT [chain 1 T12V] | -0.299 log2 (difference from the parental peptide) |
| chain 1 EEDDYTAYAPLQCYFT [chain 1 T12Q] | 0.207 log2 (difference from the parental peptide) |
| chain 1 EEDDYTAYAPLCCYFT [chain 1 T12C] | -1.01 log2 (difference from the parental peptide) |
| chain 1 EEDDYTAYAPLLCYFT [chain 1 T12L] | 0.0229 log2 (difference from the parental peptide) |
| chain 1 EEDDYTAYAPLGCYFT [chain 1 T12G] | -10.3 log2 (difference from the parental peptide) |
| chain 1 EEDDYTAYAPLECYFT [chain 1 T12E] | -7.95 log2 (difference from the parental peptide) |
| chain 1 EEDDYTAYAPLDCYFT [chain 1 T12D] | -6.65 log2 (difference from the parental peptide) |
| chain 1 LEDDYTAYAPLTCYFT [chain 1 E1L] | -1.9 log2 (difference from the parental peptide) |
| chain 1 WEDDYTAYAPLTCYFT [chain 1 E1W] | -2.09 log2 (difference from the parental peptide) |
| chain 1 NEDDYTAYAPLTCYFT [chain 1 E1N] | -1.54 log2 (difference from the parental peptide) |
| chain 1 KEDDYTAYAPLTCYFT [chain 1 E1K] | -4.48 log2 (difference from the parental peptide) |
| chain 1 REDDYTAYAPLTCYFT [chain 1 E1R] | -5.65 log2 (difference from the parental peptide) |
| chain 1 IEDDYTAYAPLTCYFT [chain 1 E1I] | -1.58 log2 (difference from the parental peptide) |
| chain 1 PEDDYTAYAPLTCYFT [chain 1 E1P] | -2.84 log2 (difference from the parental peptide) |
| chain 1 EEDDYTAYALLTCYFT [chain 1 P10L] | -7.92 log2 (difference from the parental peptide) |
| chain 1 EEDDYTAYAELTCYFT [chain 1 P10E] | -6.9 log2 (difference from the parental peptide) |
| chain 1 EEDDYTAYAFLTCYFT [chain 1 P10F] | -9.41 log2 (difference from the parental peptide) |
| chain 1 EEDDYTAYAPLTCYFL [chain 1 T16L] | 0.694 log2 (difference from the parental peptide) |
| chain 1 EEDDYTAYAPLTCYFM [chain 1 T16M] | 0.731 log2 (difference from the parental peptide) |
| chain 1 EEDDYTAYAPLTCYFA [chain 1 T16A] | 1.77 log2 (difference from the parental peptide) |
| chain 1 EEDDYTAYAPLTCYFH [chain 1 T16H] | 0.765 log2 (difference from the parental peptide) |
| chain 1 EEDDYTAYAPLTCYFW [chain 1 T16W] | -0.731 log2 (difference from the parental peptide) |
| chain 1 EEDDYTAYAPLTCYFI [chain 1 T16I] | 0.113 log2 (difference from the parental peptide) |

| Variant | enrichment |
| --- | --- |
| chain 1 EEDDYTAYAPLTCYFS [chain 1 T16S] | 1.36 log2 (difference from the parental peptide) |
| chain 1 EEDDYTAYAPLTCYFE [chain 1 T16E] | 0.53 log2 (difference from the parental peptide) |
| chain 1 EEDDYTAYAPLTCYFV [chain 1 T16V] | -0.0944 log2 (difference from the parental peptide) |
| chain 1 EEDDYTAYAPLTCYFK [chain 1 T16K] | 2.2 log2 (difference from the parental peptide) |
| chain 1 EEDDYTAYAPLTCYFY [chain 1 T16Y] | -0.842 log2 (difference from the parental peptide) |
| chain 1 EEDEYTAYAPLTCYFT [chain 1 D4E] | -1.08 log2 (difference from the parental peptide) |
| chain 1 EEDFYTAYAPLTCYFT [chain 1 D4F] | -7.18 log2 (difference from the parental peptide) |
| chain 1 EEDVYTAYAPLTCYFT [chain 1 D4V] | -8.27 log2 (difference from the parental peptide) |
| chain 1 EEDAYTAYAPLTCYFT [chain 1 D4A] | -8.08 log2 (difference from the parental peptide) |
| chain 1 EEDYYTAYAPLTCYFT [chain 1 D4Y] | -4.71 log2 (difference from the parental peptide) |
| chain 1 EEDNYTAYAPLTCYFT [chain 1 D4N] | -4.06 log2 (difference from the parental peptide) |
| chain 1 EEDDCTAYAPLTCYFT [chain 1 Y5C] | -5.08 log2 (difference from the parental peptide) |
| chain 1 EEDDTTAYAPLTCYFT [chain 1 Y5T] | -6.08 log2 (difference from the parental peptide) |
| chain 1 EEDDHTAYAPLTCYFT [chain 1 Y5H] | -5 log2 (difference from the parental peptide) |
| chain 1 EEDDDTAYAPLTCYFT [chain 1 Y5D] | -5.05 log2 (difference from the parental peptide) |
| chain 1 EEDDNTAYAPLTCYFT [chain 1 Y5N] | -6.71 log2 (difference from the parental peptide) |
| chain 1 EEDDETAYAPLTCYFT [chain 1 Y5E] | -3.48 log2 (difference from the parental peptide) |
| chain 1 EEDDFTAYAPLTCYFT [chain 1 Y5F] | -1.41 log2 (difference from the parental peptide) |
| chain 1 EEDDVTAYAPLTCYFT [chain 1 Y5V] | -5.81 log2 (difference from the parental peptide) |
| chain 1 EEDDYTAYAPETCYFT [chain 1 L11E] | 0.55 log2 (difference from the parental peptide) |
| chain 1 EEDDYTAYAPKTCYFT [chain 1 L11K] | 0.195 log2 (difference from the parental peptide) |
| chain 1 EEDDYTAYAPMTCYFT [chain 1 L11M] | 2.52 log2 (difference from the parental peptide) |
| chain 1 EEHDYTAYAPLTCYFT [chain 1 D3H] | -5.38 log2 (difference from the parental peptide) |

| Variant | enrichment |
| --- | --- |
| chain 1 EEIDYTAYAPLTCYFT [chain 1 D3I] | -5.15 log2 (difference from the parental peptide) |
| chain 1 EEEDYTAYAPLTCYFT [chain 1 D3E] | 1.1 log2 (difference from the parental peptide) |
| chain 1 EEFDYTAYAPLTCYFT [chain 1 D3F] | -5 log2 (difference from the parental peptide) |
| chain 1 EEYDYTAYAPLTCYFT [chain 1 D3Y] | -3.98 log2 (difference from the parental peptide) |
| chain 1 EEGDYTAYAPLTCYFT [chain 1 D3G] | -4.28 log2 (difference from the parental peptide) |
| chain 1 EEKDYTAYAPLTCYFT [chain 1 D3K] | -5.36 log2 (difference from the parental peptide) |
| chain 1 EEADYTAYAPLTCYFT [chain 1 D3A] | -3.86 log2 (difference from the parental peptide) |
| chain 1 ETDDYTAYAPLTCYFT [chain 1 E2T] | -3.84 log2 (difference from the parental peptide) |
| chain 1 EVDDYTAYAPLTCYFT [chain 1 E2V] | -2.63 log2 (difference from the parental peptide) |
| chain 1 EMDDYTAYAPLTCYFT [chain 1 E2M] | -2.95 log2 (difference from the parental peptide) |
| chain 1 EQDDYTAYAPLTCYFT [chain 1 E2Q] | -3.9 log2 (difference from the parental peptide) |
| chain 1 ESDDYTAYAPLTCYFT [chain 1 E2S] | -3.12 log2 (difference from the parental peptide) |
| chain 1 ELDDYTAYAPLTCYFT [chain 1 E2L] | -2.82 log2 (difference from the parental peptide) |
| chain 1 EDDDYTAYAPLTCYFT [chain 1 E2D] | 1.62 log2 (difference from the parental peptide) |
| chain 1 ENDDYTAYAPLTCYFT [chain 1 E2N] | -3.61 log2 (difference from the parental peptide) |
| chain 1 EWDDYTAYAPLTCYFT [chain 1 E2W] | -1.93 log2 (difference from the parental peptide) |
| chain 1 EEDDYSAYAPLTCYFT [chain 1 T6S] | 3.56 log2 (difference from the parental peptide) |
| chain 1 EEDDYLAYAPLTCYFT [chain 1 T6L] | -2.3 log2 (difference from the parental peptide) |
| chain 1 EEDDYNAYAPLTCYFT [chain 1 T6N] | 1.76 log2 (difference from the parental peptide) |
| chain 1 EEDDYDAYAPLTCYFT [chain 1 T6D] | 3.79 log2 (difference from the parental peptide) |
| chain 1 EEDDYEAYAPLTCYFT [chain 1 T6E] | 2.68 log2 (difference from the parental peptide) |
| chain 1 EEDDYMAYAPLTCYFT [chain 1 T6M] | -1.14 log2 (difference from the parental peptide) |
| chain 1 EEDDYTADAPLTCYFT [chain 1 Y8D] | -7.54 log2 (difference from the parental peptide) |

| Variant | enrichment |
| --- | --- |
| chain 1 EEDDYTAFAPLTCYFT [chain 1 Y8F] | -0.0331 log2 (difference from the parental peptide) |
| chain 1 EEDDYTALAPLTCYFT [chain 1 Y8L] | -7.77 log2 (difference from the parental peptide) |
| chain 1 EEDDYTAWAPLTCYFT [chain 1 Y8W] | -2.54 log2 (difference from the parental peptide) |
| chain 1 EEDDYTAAAPLTCYFT [chain 1 Y8A] | -7.77 log2 (difference from the parental peptide) |
| chain 1 EEDDYTAYAPLTCYAT [chain 1 F15A] | 1.19 log2 (difference from the parental peptide) |
| chain 1 EEDDYTAYAPLTCYMT [chain 1 F15M] | 0.54 log2 (difference from the parental peptide) |
| chain 1 EEDDYTAYAPLTCYST [chain 1 F15S] | -0.181 log2 (difference from the parental peptide) |
| chain 1 EEDDYTAYAPLTCYVT [chain 1 F15V] | 0.452 log2 (difference from the parental peptide) |
| chain 1 EEDDYTAYAPLTCYPT [chain 1 F15P] | -1.52 log2 (difference from the parental peptide) |
| chain 1 EEDDYTAYAPLTCYET [chain 1 F15E] | -3.12 log2 (difference from the parental peptide) |
| chain 1 EEDDYTAYAPLTCYRT [chain 1 F15R] | 0.817 log2 (difference from the parental peptide) |
| chain 1 EEDDYTAYAPLTCYCT [chain 1 F15C] | -4.84 log2 (difference from the parental peptide) |
| chain 1 EEDDYTAYAPLTCIFT [chain 1 Y14I] | -0.881 log2 (difference from the parental peptide) |
| chain 1 EEDDYTAYAPLTCQFT [chain 1 Y14Q] | -0.26 log2 (difference from the parental peptide) |
| chain 1 EEDDYTAYAPLTCEFT [chain 1 Y14E] | -6.44 log2 (difference from the parental peptide) |
| chain 1 EEDDYTAYAPLTCCFT [chain 1 Y14C] | -2.09 log2 (difference from the parental peptide) |
| chain 1 EEDDYTAYAPLTCDFT [chain 1 Y14D] | -4.53 log2 (difference from the parental peptide) |
| chain 1 EEDDYTAYAPLTCHFT [chain 1 Y14H] | 2.15 log2 (difference from the parental peptide) |
| chain 1 EEDDYTAYAPLTLYFT [chain 1 C13L] | -6.36 log2 (difference from the parental peptide) |
| chain 1 EEDDYTAYAPLTMYFT [chain 1 C13M] | -3.12 log2 (difference from the parental peptide) |
| chain 1 EEDDYTAYAPLTFYFT [chain 1 C13F] | -6.63 log2 (difference from the parental peptide) |
| chain 1 EEDDYTAYAPLTSYFT [chain 1 C13S] | -3.73 log2 (difference from the parental peptide) |
| chain 1 EEDDYTAYAPLTWYFT [chain 1 C13W] | -3.31 log2 (difference from the parental peptide) |

| Variant | enrichment |
| --- | --- |
| chain 1 EEDDYTAYAPLTAYFT [chain 1 C13A] | -6.82 log2 (difference from the parental peptide) |
| chain 1 EEDDYTAYTPLTCYFT [chain 1 A9T] | -3.93 log2 (difference from the parental peptide) |
| chain 1 EEDDYTAYMPLTCYFT [chain 1 A9M] | -5.79 log2 (difference from the parental peptide) |
| chain 1 EEDDYTAYGPLTCYFT [chain 1 A9G] | -7.69 log2 (difference from the parental peptide) |
| chain 1 EEDDYTAYHPLTCYFT [chain 1 A9H] | -6.63 log2 (difference from the parental peptide) |
| chain 1 EEDDYTAYWPLTCYFT [chain 1 A9W] | -3.76 log2 (difference from the parental peptide) |
| chain 1 EEDDYTAYNPLTCYFT [chain 1 A9N] | -4.75 log2 (difference from the parental peptide) |
| chain 1 EEDDYTAYLPLTCYFT [chain 1 A9L] | -6.75 log2 (difference from the parental peptide) |
| chain 1 EEDDYTAYSPLTCYFT [chain 1 A9S] | -2.79 log2 (difference from the parental peptide) |
| chain 1 EEDDYTQYAPLTCYFT [chain 1 A7Q] | 2.25 log2 (difference from the parental peptide) |
| chain 1 EEDDYTIYAPLTCYFT [chain 1 A7I] | -3 log2 (difference from the parental peptide) |
| chain 1 EEDDYTEYAPLTCYFT [chain 1 A7E] | 1.56 log2 (difference from the parental peptide) |
| chain 1 EEDDYTTYAPLTCYFT [chain 1 A7T] | -1.44 log2 (difference from the parental peptide) |
| chain 1 EEDDYTPYAPLTCYFT [chain 1 A7P] | 1.84 log2 (difference from the parental peptide) |
| chain 1 EEDDYTVYAPLTCYFT [chain 1 A7V] | -3.51 log2 (difference from the parental peptide) |
| chain 1 EEDDYTYYAPLTCYFT [chain 1 A7Y] | -1.54 log2 (difference from the parental peptide) |
| chain 1 EEDDYTMYAPLTCYFT [chain 1 A7M] | 1.59 log2 (difference from the parental peptide) |
| chain 1 EEDDYTDYAPLTCYFT [chain 1 A7D] | 1.26 log2 (difference from the parental peptide) |
| chain 1 EEDDYTLYAPLTCYFT [chain 1 A7L] | -0.735 log2 (difference from the parental peptide) |

Variants of: B2

| Variant | enrichment |
| --- | --- |
| chain 1 D4G | -4.8 log2 (difference from the parental peptide) |
